Experimental data taken from publication PMC4541722.

Columns and labels:
[1] = substrate: Nc1ccn([C@@H]2O[C@H](CO)[C@@H](O)C2(F)F)c(=O)n1; test: HPLC deamination assay, non-linear regression; assay type: biochemical, Homo sapiens; details: PBS, 37 °C, 10 min, 11 nM enzyme
[2] = substrate: Nc1ccn([C@H]2C[C@H](O)[C@@H](CO)O2)c(=O)n1; test: HPLC deamination assay, non-linear regression; assay type: biochemical, Homo sapiens; details: PBS, 37 °C, 10 min, 11 nM enzyme

B1: CDAHuman (Homo sapiens) (protein)
chain: MAQKRPACTLKPECVQQLLVCSQEAKKSAYCPYSHFPVGAALLTQEGRIFKGCNIENACYPLGICAERTAIQKAVSEGYKDFRAIAIASDMQDDFISPCGACRQVMREFGTNWPVYMTKPDGTYIVMTVQELLPSSFGPEDLQKTQ
Km [1]: 3.08 ± 0.598 mM
kcat [1]: 14 ± 0.91 s⁻¹
kcat/Km [1]: 4000 M⁻¹ s⁻¹
Km [2]: 373 ± 138 µM
kcat [2]: 7.8 ± 0.64 s⁻¹
kcat/Km [2]: 21000 M⁻¹ s⁻¹
